In article PMC10320395, “Molecular insights into LINC complex architecture through the crystal structure of a luminal trimeric coiled-coil domain of SUN1” (Frontiers in Cell and Developmental Biology, 2023):
Several values for one entry are separate records, joined by “and”; a condition that tells them apart may be missing. Equal values may be shown once. Where no end group is shown, it is not given here.

B1: SUN1 α1 (luminal coiled-coil domain of human SUN1, amino-acids 362–401) (domain or fragment, UniProt O94901 362-401, looked up)
chain: MSGVEQQVASLSGQCHHHGENLRELTTLLQKLQARVDQME
modifications: also: C376 partly oxidised to S-hydroperoxycysteine in crystal chain B, occupancy 0.62
notes: human SUN1, Uniprot O94901, amino-acids 362–401 (α1 coiled-coil domain of the luminal region); Expressed from pMAT11 as a TEV-cleavable His-MBP fusion; tags removed with TEV protease; About one zinc ion per trimer was found in solution; the crystal lacked zinc; also called SUN1 362–401; source: E. coli BL21 (DE3), purified (Ni-NTA, amylose, ion exchange, TEV cleavage, ion exchange, SEC); not …
B2: MBP-SUN1 α1 (MBP fusion of human SUN1 amino-acids 362–401) (domain or fragment, UniProt O94901 362-401, looked up)
chain: B1 chain
notes: human SUN1, Uniprot O94901, amino-acids 362–401 (α1 coiled-coil domain); The uncleaved His-MBP fusion from pMAT11, used to give greater molecular mass resolution in SEC-MALS; theoretical monomer 49 kDa; The His tag probably stays with the MBP (surmise); source: E. coli BL21 (DE3), purified (Ni-NTA, amylose, ion exchange); not shown: MBP, N-terminal, kept
B3: SUN1 α1-α2 (human SUN1 amino-acids 362–584) (domain or fragment, UniProt O94901 362-584, looked up)
chain: MSGVEQQVASLSGQCHHHGENLRELTTLLQKLQARVDQMEGGAAGPSASVRDAVGQPPRETDFMAFHQEHEVRMSHLEDILGKLREKSEAIQKELEQTKQKTISAVGEQLLPTVEHLQLELDQLKSELSSWRHVKTGCETVDAVQERVDVQVREMVKLLFSEDQQGGSLEQLLQRFSSQFVSKGDLQTMLRDLQLQILRNVTHHVSVTKQLPTSEAVVSAVSE
notes: human SUN1, Uniprot O94901, amino-acids 362–584 (α1 and α2 coiled-coils joined by their natural linker); Theoretical trimer 75 kDa; source: E. coli BL21 (DE3), purified (Ni-NTA, amylose, ion exchange, TEV cleavage, ion exchange, SEC); not shown: His, N-terminal, cleaved; MBP, N-terminal, cleaved
B4: SUN1 α2 (second luminal coiled-coil domain of human SUN1, amino-acids 421–584) (domain or fragment, UniProt O94901 421-584, looked up)
chain: ETDFMAFHQEHEVRMSHLEDILGKLREKSEAIQKELEQTKQKTISAVGEQLLPTVEHLQLELDQLKSELSSWRHVKTGCETVDAVQERVDVQVREMVKLLFSEDQQGGSLEQLLQRFSSQFVSKGDLQTMLRDLQLQILRNVTHHVSVTKQLPTSEAVVSAVSE
notes: human SUN1, Uniprot O94901, amino-acids 421–584 (α2 coiled-coil domain); Theoretical monomer 19 kDa, so the cleaved protein stood in SEC-MALS; source: E. coli BL21 (DE3), purified (Ni-NTA, amylose, ion exchange, TEV cleavage, ion exchange, SEC); not shown: His, N-terminal, cleaved; MBP, N-terminal, cleaved
B5: SUN1 α1-α2-SUN (entire structured luminal domain of human SUN1, amino-acids 362–785) (domain or fragment, UniProt O94901 362-785, looked up)
chain: MSGVEQQVASLSGQCHHHGENLRELTTLLQKLQARVDQMEGGAAGPSASVRDAVGQPPRETDFMAFHQEHEVRMSHLEDILGKLREKSEAIQKELEQTKQKTISAVGEQLLPTVEHLQLELDQLKSELSSWRHVKTGCETVDAVQERVDVQVREMVKLLFSEDQQGGSLEQLLQRFSSQFVSKGDLQTMLRDLQLQILRNVTHHVSVTKQLPTSEAVVSAVSEAGASGITEAQARAIVNSALKLYSQDKTGMVDFALESGGGSILSTRCSETYETKTALMSLFGIPLWYFSQSPRVVIQPDIYPGNCWAFKGSQGYLVVRLSMMIHPAAFTLEHIPKTLSPTGNISSAPKDFAVYGLENEYQEEGQLLGQFTYDQDGESLQMFQALKRPDDTAFQIVELRIFSNWGHPEYTCLYRFRVHGEPVK
notes: human SUN1, Uniprot O94901, amino-acids 362–785 (α1, α2 and the C-terminal SUN domain); Theoretical trimer 142 kDa; source: E. coli BL21 (DE3), purified (Ni-NTA, amylose, ion exchange, TEV cleavage, ion exchange, SEC); not shown: His, N-terminal, cleaved; MBP, N-terminal, cleaved

Experiments:
[1] = target: the molecule itself; test: crystal structure; SUN1 362–401 at 3.5 mg/mL, sitting drops, 20°C; spacegroup P2(1), a SUN1 trimer in the asymmetric unit; 2.07 Å
[2] = target: the molecule itself; test: SEC-MALS; MBP-SUN1 α1 at 20 mg/mL and 1 mg/mL after purification, and at 20 mg/mL after over-night incubation with 2 mM zinc acetate (trimer stabilised); Superdex 200 Increase 10/300 GL, 20 mM HEPES pH 7.5, 150 mM KCl, 2 mM DTT; trimer to dimers to monomers
[3] = target: the molecule itself; test: SEC-MALS; cleaved SUN1 constructs at > 5 mg/mL; Superdex 200 Increase 10/300 GL, 20 mM HEPES pH 7.5, 150 mM KCl, 2 mM DTT

Row | Protein | stoichiometry N [3] | further results
1 | B1 |  | binding result [1]: binds
2 | B2 |  | stoichiometry N [2]: 3 and 2
3 | B3 | 3 | 
4 | B4 | 3 and 2 | 
5 | B5 | 3 | 
